Reference: PMC9352680, “A comprehensive thermodynamic model for RNA binding by the Saccharomyces cerevisiae Pumilio protein PUF4”
Changes are numbered by the printed parent chain. Numbers in names are those of the source.

T1: PUF4 RNA-binding domain (Saccharomyces cerevisiae, UniProt P25339 537-888)
T1 sequence: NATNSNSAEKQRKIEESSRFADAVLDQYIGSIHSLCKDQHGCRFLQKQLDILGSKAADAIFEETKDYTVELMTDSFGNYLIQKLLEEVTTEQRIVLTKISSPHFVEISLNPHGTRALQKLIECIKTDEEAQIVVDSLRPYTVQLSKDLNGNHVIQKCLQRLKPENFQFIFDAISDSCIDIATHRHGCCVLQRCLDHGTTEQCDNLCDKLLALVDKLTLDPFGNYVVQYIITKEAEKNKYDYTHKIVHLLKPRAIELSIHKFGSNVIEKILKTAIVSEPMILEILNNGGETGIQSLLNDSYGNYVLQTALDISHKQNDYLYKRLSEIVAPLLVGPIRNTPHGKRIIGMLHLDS

B1: Id_ii_S4_P5E.4_K5.3_C5.2_H5.3_A5.1_F5.1_T5.2_[T11G]_[A12C] (ssRNA)
RNA: UUUGACAACUGAUCGUUCUUUCUCUACACUUAUUAGCUUCUUUCUCGAUCAGUUGUCUUU
B2: Id_ii_S4_P5E.3_K5.2_C5.2_[C-2T]_[T-1A]_H5.2_A5.1_F5.1_T5.2_[A12T] (ssRNA)
RNA: UUUGACAACUGAUCGUUCUUUCUUAUAUAUUAUUAUUUUCUUUCUCGAUCAGUUGUCUUU
B3: Id_ii_S4_P5E.3_K5.2_C5.2_[C-2A]_[T-1A]_H5.2_A5.1_F5.1_T5.2_[T11C]_[A12C] (ssRNA)
RNA: B2 RNA with U24A, U36C, U37C
B4: Id_ii_S4_P5E.4_K5.3_C5.2_[T-1C]_H5.3_A5.1_F5.1_T5.2_[T11C]_[A12T] (ssRNA)
RNA: B1 RNA with U25C, G36C, C37U
B5: Id_ii_S4_P5E.3_K5.2_C5.2_H5.2_A5.1_F5.1_T5.2_[T11C]_[A12G] (ssRNA)
RNA: B2 RNA with U24C, A25U, U36C, U37G
B6: Id_ii_S4_P5E.4_K5.3_C5.2_[C-2T]_[T-1A]_H5.3_A5.1_F5.1_T5.2_[A12C] (ssRNA)
RNA: B1 RNA with C24U, U25A, G36U
B7: Id_ii_S4_P5E.4_K5.3_C5.2_[T-1G]_H5.3_A5.1_F5.1_T5.2 (ssRNA)
RNA: B1 RNA with U25G, G36U, C37A
B8: Id_ii_S4_P5E.4_K5.3_C5.2_[C-2G]_H5.3_A5.1_F5.1_T5.2_[A12T] (ssRNA)
RNA: B1 RNA with C24G, G36U, C37U
B9: Id_ii_S4_P5E.3_K5.2_C5.2_[C-2A]_[T-1C]_H5.2_A5.1_F5.1_T5.2_[T11C]_[A12G] (ssRNA)
RNA: B2 RNA with U24A, A25C, U36C, U37G
B10: Id_ii_S4_P5E.4_K5.3_C5.2_[C-2G]_[T-1C]_H5.3_A5.1_F5.1_T5.2_[T11A]_[A12T] (ssRNA)
RNA: B1 RNA with C24G, U25C, G36A, C37U
B11: Id_ii_S4_P5E.3_K5.2_C5.2_[T-1A]_H5.2_A5.1_F5.1_T5.2_[T11A]_[A12C] (ssRNA)
RNA: B2 RNA with U24C, U36A, U37C
B12: Id_ii_S4_P5E.4_K5.3_C5.2_[C-2T]_[T-1C]_H5.3_A5.1_F5.1_T5.2_[A12T] (ssRNA)
RNA: B1 RNA with C24U, U25C, G36U, C37U
B13: Id_ii_S4_P5E.4_K5.3_C5.2_[T-1C]_H5.3_A5.1_F5.1_T5.2_[A12G] (ssRNA)
RNA: B1 RNA with U25C, G36U, C37G
B14: Id_ii_S4_P5E.3_K5.2_C5.2_[T-1G]_H5.2_A5.1_F5.1_T5.2_[A12T] (ssRNA)
RNA: B2 RNA with U24C, A25G
B15: Id_ii_S4_P5E.3_K5.2_C5.2_[C-2T]_H5.2_A5.1_F5.1_T5.2_[T11G]_[A12T] (ssRNA)
RNA: B2 RNA with A25U, U36G
B16: Id_ii_S4_P5E.4_K5.3_C5.2_[C-2T]_[T-1A]_H5.3_A5.1_F5.1_T5.2 (ssRNA)
RNA: B1 RNA with C24U, U25A, G36U, C37A
B17: Id_ii_S4_P5E.3_K5.2_C5.2_[C-2T]_H5.2_A5.1_F5.1_T5.2_[T11G]_[A12C] (ssRNA)
RNA: B2 RNA with A25U, U36G, U37C
B18: Id_ii_S4_P5E.3_K5.2_C5.2_[T-1C]_H5.2_A5.1_F5.1_T5.2_[T11C]_[A12T] (ssRNA)
RNA: B2 RNA with U24C, A25C, U36C
B19: Id_ii_S4_P5E.3_K5.2_C5.2_[T-1A]_H5.2_A5.1_F5.1_T5.2_[T11C]_[A12C] (ssRNA)
RNA: B2 RNA with U24C, U36C, U37C
B20: Id_ii_S4_P5E.4_K5.3_C5.2_[C-2G]_H5.3_A5.1_F5.1_T5.2_[T11A]_[A12T] (ssRNA)
RNA: B1 RNA with C24G, G36A, C37U
B21: Id_ii_S4_P5E.3_K5.2_C5.2_[C-2A]_H5.2_A5.1_F5.1_T5.2_[T11C] (ssRNA)
RNA: B2 RNA with U24A, A25U, U36C, U37A
B22: Id_ii_S4_P5E.4_K5.3_C5.2_H5.3_A5.1_F5.1_T5.2_[A12T] (ssRNA)
RNA: B1 RNA with G36U, C37U
B23: Id_ii_S4_P5E.3_K5.2_C5.2_[C-2A]_[T-1C]_H5.2_A5.1_F5.1_T5.2_[A12C] (ssRNA)
RNA: B2 RNA with U24A, A25C, U37C
B24: Id_ii_S4_P5E.3_K5.2_C5.2_[T-1A]_H5.2_A5.1_F5.1_T5.2_[T11A]_[A12T] (ssRNA)
RNA: B2 RNA with U24C, U36A
B25: Id_ii_S4_P5E.3_K5.2_C5.2_H5.2_A5.1_F5.1_T5.2_[T11C]_[A12T] (ssRNA)
RNA: B2 RNA with U24C, A25U, U36C
B26: Id_ii_S4_P5E.4_K5.3_C5.2_[C-2T]_H5.3_A5.1_F5.1_T5.2_[A12T] (ssRNA)
RNA: B1 RNA with C24U, G36U, C37U
B27: Id_ii_S4_P5E.4_K5.3_C5.2_[C-2G]_H5.3_A5.1_F5.1_T5.2_[A12C] (ssRNA)
RNA: B1 RNA with C24G, G36U
B28: Id_ii_S4_P5E.3_K5.2_C5.2_H5.2_A5.1_F5.1_T5.2_[A12T] (ssRNA)
RNA: B2 RNA with U24C, A25U
B29: Id_ii_S4_P5E.4_K5.3_C5.2_[C-2A]_H5.3_A5.1_F5.1_T5.2_[A12G] (ssRNA)
RNA: B1 RNA with C24A, G36U, C37G
B30: Id_ii_S4_P5E.3_K5.2_C5.2_[C-2A]_[T-1C]_H5.2_A5.1_F5.1_T5.2_[T11C]_[A12T] (ssRNA)
RNA: B2 RNA with U24A, A25C, U36C
B31: Id_ii_S4_P5E.3_K5.2_C5.2_[T-1A]_H5.2_A5.1_F5.1_T5.2_[T11A]_[A12G] (ssRNA)
RNA: B2 RNA with U24C, U36A, U37G
B32: Id_ii_S4_P5E.4_K5.3_C5.2_[C-2A]_[T-1C]_H5.3_A5.1_F5.1_T5.2_[A12G] (ssRNA)
RNA: B1 RNA with C24A, U25C, G36U, C37G
B33: Id_ii_S4_P5E.4_K5.3_C5.2_[C-2A]_[T-1A]_H5.3_A5.1_F5.1_T5.2 (ssRNA)
RNA: B1 RNA with C24A, U25A, G36U, C37A
B34: Id_ii_S4_P5E.4_K5.3_C5.2_[C-2T]_H5.3_A5.1_F5.1_T5.2_[T11A]_[A12T] (ssRNA)
RNA: B1 RNA with C24U, G36A, C37U
B35: Id_ii_S4_P5E.4_K5.3_C5.2_[C-2A]_H5.3_A5.1_F5.1_T5.2_[A12T] (ssRNA)
RNA: B1 RNA with C24A, G36U, C37U

Biological target: T1, PUF4 RNA-binding domain
Test: Mg; RNA-MaP; 20 mM Na-HEPES pH 7.4, 30 mM KOAc, 0.75 mM MgCl2, 0.1% Tween-20, 5% glycerol, 0.1 mg/mL BSA, 2 mM DTT; 25 C; 0.0125-409.6 nM protein
Details: tags: N-His6-TEV cleaved; C-SNAP kept, Cy3B-labelled; label: tethered on chip by stalled RNA polymerase

Row | Binder | Kd [nM]
1 | UCUCUUUAUUGUAUAUAUAUCUCUU (ssRNA) [Id_iii_S1_P3E.5_K3.1_C3.3_[C-2A]_H3.1_A3.1_F3.1_T3.2] | 9.45
2 | UCUCUUUUUUGUAUAUAUAUCUCUU (ssRNA) [Id_iii_S1_P3E.5_K3.1_C3.3_[C-2T]_H3.1_A3.1_F3.1_T3.2] | 6.24
3 | UCUCUUCCUUGUAUAUAUAUCUCUU (ssRNA) [Ie_S1_P3E.2_K3.1_C3.2_[+-2C]_H3.1_A3.1_F3.1_T3.2] | 6.23
4 | UCUCUUUGUGUCAUUAUCUCUU (ssRNA) [Ib_S1_P5E.1_K5.1_C5.1_H5.1_[A4G]_A5.1_[T6C]_F5.1_T5.1] | 30.7
5 | UCUCUUCCUUAUAUAUAUAUCUCUU (ssRNA) [Id_iii_S1_P3E.6_K3.2_C3.3_[T-3C]_H3.2_A3.1_F3.1_T3.2] | 364
6 | UCUCUUUCCUGUAUAUAUAUCUCUU (ssRNA) [Id_iii_S1_P3E.5_K3.1_C3.3_[T-1C]_H3.1_A3.1_F3.1_T3.2] | 4.14
7 | UCUCUUUCUUGUAUAUAUUUCUCUU (ssRNA) [Id_iii_S1_P3E.5_K3.1_C3.3_H3.1_A3.1_F3.1_T3.2_[A10T]] | 6.04
8 | UCUCUUUGUAUUGUUAUCUCUU (ssRNA) [Ia_S1_P5E.1_K5.1_C5.1_H5.1_A5.1_[A7G]_F5.1_T5.1] | 11.2
9 | UCUCUUACUUAUAUAUAUAUCUCUU (ssRNA) [Id_iii_S1_P3E.6_K3.2_C3.3_[T-3A]_H3.2_A3.1_F3.1_T3.2] | 113
10 | UCUCUUGCUUAUAUAUAUAUCUCUU (ssRNA) [Id_iii_S1_P3E.6_K3.2_C3.3_[T-3G]_H3.2_A3.1_F3.1_T3.2] | 380
11 | UCUCUUUCGUGUAUAUAUAUCUCUU (ssRNA) [Id_iii_S1_P3E.5_K3.1_C3.3_[T-1G]_H3.1_A3.1_F3.1_T3.2] | 6.72
12 | UCUCUUUGUGCUAUUAUCUCUU (ssRNA) [Ib_S1_P5E.1_K5.1_C5.1_H5.1_[A4G]_A5.1_[T5C]_F5.1_T5.1] | 28
13 | UCUCUUUCUUGUAUAUAUCUCUCUU (ssRNA) [Id_iii_S1_P3E.5_K3.1_C3.3_H3.1_A3.1_F3.1_T3.2_[A10C]] | 6.06
14 | UCUCUUUGUCCUAUUAUCUCUU (ssRNA) [Ib_S1_P5E.1_K5.1_C5.1_H5.1_[A4C]_A5.1_[T5C]_F5.1_T5.1] | 79.5
15 | UCUCUUUCAUAUAUAUAUAUCUCUU (ssRNA) [Id_iii_S1_P3E.6_K3.2_C3.3_[T-1A]_H3.2_A3.1_F3.1_T3.2] | 592
16 | UCUCUUUUUUAUAUAUAUAUCUCUU (ssRNA) [Id_iii_S1_P3E.6_K3.2_C3.3_[C-2T]_H3.2_A3.1_F3.1_T3.2] | 486
17 | UCUCUUACUUGUAUAUAUAUCUCUU (ssRNA) [Id_iii_S1_P3E.5_K3.1_C3.3_[T-3A]_H3.1_A3.1_F3.1_T3.2] | 5.04
18 | UCUCUUUGUUGUAUAUAUAUCUCUU (ssRNA) [Id_iii_S1_P3E.5_K3.1_C3.3_[C-2G]_H3.1_A3.1_F3.1_T3.2] | 5.21
19 | B1 | > 2300
20 | UCUCUUUCGUAUAUAUAUAUCUCUU (ssRNA) [Id_iii_S1_P3E.6_K3.2_C3.3_[T-1G]_H3.2_A3.1_F3.1_T3.2] | 502

Row | Binder | Kd [nM]
21 | UCUCUUUAUUAUAUAUAUAUCUCUU (ssRNA) [Id_iii_S1_P3E.6_K3.2_C3.3_[C-2A]_H3.2_A3.1_F3.1_T3.2] | 373
22 | B2 | 23.8
23 | B3 | 896
24 | B4 | > 2300
25 | B5 | 470
26 | B6 | > 2300
27 | B7 | 1170
28 | B8 | 2.65
29 | B9 | 1150
30 | B10 | 559
31 | B11 | 143
32 | B12 | > 2300
33 | B13 | > 2300
34 | B14 | 15.6
35 | B15 | 500
36 | B16 | 893
37 | B17 | 416
38 | B18 | 65.6
39 | B19 | 116
40 | B20 | 2.81

Row | Binder | Kd [nM]
41 | B21 | 203
42 | B22 | > 2300
43 | B23 | 216
44 | B24 | 214
45 | B25 | 96.6
46 | B26 | > 2300
47 | B27 | 3
48 | B28 | 168
49 | B29 | 1530
50 | B30 | 122
51 | B31 | > 2300
52 | B32 | > 2300
53 | B33 | 845
54 | B34 | > 2300
55 | B35 | 467
56 | UCUCUUUCAUGUAUAUAUAUCUCUU (ssRNA) [Id_iii_S1_P3E.5_K3.1_C3.3_[T-1A]_H3.1_A3.1_F3.1_T3.2] | 6.5
57 | UCUCUUUCUUGUAUAUAUGUCUCUU (ssRNA) [Id_iii_S1_P3E.5_K3.1_C3.3_H3.1_A3.1_F3.1_T3.2_[A10G]] | 7.51
58 | UCUCUUUGUUCUAUUAUCUCUU (ssRNA) [Ib_S1_P5E.1_K5.1_C5.1_H5.1_[A4T]_A5.1_[T5C]_F5.1_T5.1] | 31.7
59 | UCUCUUUGUUGUAUUAUCUCUU (ssRNA) [Ib_S1_P5E.1_K5.1_C5.1_H5.1_[A4T]_A5.1_[T5G]_F5.1_T5.1] | 22.2
